experiment: soluble on expression in E. coli; label from the status in PepcDB or PDB records

Sequence	soluble on expression in E. coli
MKQRHGNSLLTTDTKCISCRLGVPLSPQRRFQAIRIEEVKLRWFAFLIVLLAGCSSKHDYTNPPWNAKVPVQRAMQWMPISQKAGAAWGVDPQLITAIIAIESGGNPNAVSKSNAIGLMQLKASTSGRDVYRRMGWSGEPTTSELKNPERNISMGAAYLNILETGPLAGIEDPKVLQYALVVSYANGAGALLRTFSSDRKKAISKINDLDADEFLDHVARNHPAPQAPRYIYKLEQALDAM	not soluble
MKQVAKGLQMEGNFGTAHVYRSSLNAIIAYRGKGDFTFHEVTPEWLKGFEIHLRGRGCSWNTVSTYLRTFRAVYNRAVDCRGAVYVPHLFRSVYTGTRADRKRALCDEDMQKVFAKLPSSPAVTPAMRRTQELFVLMFLLRGLPFVDLAYLRKSDLHDNVITYRRRKTGRPLSVTLTREAMVLLKRYMNRDSSSPYLFSLLESREGTKEAYREYQLALRSFNQQLLLLGQLLGLGDRLSSYTARHTWATTAYYCEIHPGIISEAMGHSSITVTETYLKPFRNKKIDEANQLVTDFVKRIVTGLIA	not soluble
MKQYFYERECQNPELREQSLLERLPSFITYAKQECQHYGQILQHIDADKITSRELLAQLPITRKSDLMKLQAKNSPLGGLNANKANIGRIFQSPGPIYDPENTSDDWWRLGQAFYAAGFRAGDIVQNCLSYHLTPGGFILDSGARACGCVVIPAGPGQTEQQLDIIEHLKPQGYSGTPSFLKILLDKAKAENRDISSVTKALVTGEALPKGLRAEFDAAGINTLQAYASADVGLIGFESKSDDGFIIAEDLLVEIVRPGTLEPVADGEIGEVVVTSFNVDYPLIRFATGDLSAVKSSESACGRTNMCIKGWLGRADQTTKIKGMFVHAEQIEQVRQAYPHIAKMRLSVTQVNYNDQMNLQCELDSSGYSEADIAGAIENISSSLKKTTKLNGAVELVAVGTLADDGKVIDDLRPIG	not soluble
MKRARSANIPGAILHSLAELQDGLNAMIDPSWRAVRSLDNWALAITMESTELLDSYPWKWWKNLNATPDLANVRIELVDIFHFSLSGAMQMRSTPDDEIPAASLKPLKEVMTTFLPAKECTSDPYGFVFFPLTDTQNAIASFRNIIQLANAYRFDVIIECIIYAAEDLGFNLVAYYIAKHTLNCIRQLSGYKDGSYVKVNNGVEDNSLLHNCIKDVSLDEVLDADKYVQAWNSIMANVYEAFQIKESDRKDAERWFALAKENRLAIKA	soluble
MKRDDLMQIIKRDGHVADFDPDKIYQAIIKAARTVYVIDDTWRQNLTHVTKKVVIDLEEAHVERPTINMVQSLVENRLMDAGYITIAEHYISYRLQRDLERNGYGDKIVVHLRFEQIK	soluble
MKRFARKETIYLRGEEARTLYRLEEGLVRVVELLPDGRLITLRHVLPGDYFGEEALEGKAYRYTAEAMTEAVVQGLEPRAMDHEALHRVARNLARQMRRVQAYEAHLQTGELRARIARYLLFLADTPLSARDRQGIYVTVSHEEIADATASIRESVSKVLADLRREGLIATAYRRVYLLDLAALEREAGSALEAA	soluble
MKRFNVLKYIRTTKANIQTIAMPLTTKPLSLKINAALFDVDGTIIISQPAIAAFWRDFGKDKPYFDAEHVIHISHGWRTYDAIAKFAPDFADEEYVNKLEGEIPEKYGEHSIEVPGAVKLCNALNALPKEKWAVATSGTRDMAKKWFDILKIKRPEYFITANDVKQGKPHPEPYLKGRNGLGFPINEQDPSKSKVVVFEDAPAGIAAGKAAGCKIVGIATTFDLDFLKEKGCDIIVKNHESIRVGEYNAETDEVELIFDDYLYAKDDLLKW	soluble
MKRIFVQNRELVVPGTLLAQGPYKNGRGTFREGSRIYSTVIGLVDIKGNTIRVIPLEGPYIPEVGDNVIGKIVDVKFSSWVVDIGAPYLANLKIQDFTDEKIDLLRTDLRKFFDIGDIIYGKVKAITEVNNIDLTTKGMPFNGGPLKGGQIVKITPSRVPRVIGRGGSMINMIKKLTMTRIIVGQNGWIWVNGKNEALEKLAIEAILKIDRESHTKGLTDRIKSLLLSRLQELKEKGVIEEIPELEEEPQEETEVNNNDGETRRT	soluble
MKRISPLRSLVACRWTNRARKRLAAVGLASICLLSACAPKFDKGEEVVQDKGSKQQEAVIPKYNIADSYYRVILPFKPSGARGEVVNDLNTRLDVDEFETGLMRLATEQFPSDEYLFQEGQYLDSETVGKWLARKKTTRQLKEEKMKPEDNLGLNPPISDTGTNEQKNKQSPIYLASILEHDYLVKIDNDKVKLGGIAIGLALNSVHYYSTEQGYPREVKIKDDVIEREGKRIAAEVLKRLRSMKGLGSVPITIALYKQAPRSSVVPGHFFAVAHVDGGDSTIDEWEAVNEEYYLFPSDEAEENHRDDWLKFNNFKSDVEDFFPNYTGIVGRGLYVNDQLQKLTINITMPFYGKAEVIGFTQYVTGLVMEKFPDYITVNVYIASAGQPESLIVRQAKADEPFVHIYQ	not soluble
MKRLTERVIIMKGAGEMATGVACRLHRSGFRRILMLEAPSPLAVRRGVSFCEAIHNGRKSVEGIEAVRIENGSALADAWGKGEIPLLADPQGDAVRRMEPDILIDATIAKRNLGIAITDAPLVIALGPGFFAGRDCHLVIETNRGHNLGRLIACGEAEPNTGIPGNIGGYTRERVLRAPADGHFTTEKVIGDQVSKGDVVGIVGTNTVTASIDGILRGLIRPGTHVTTGLKIGDIDPRGDTAYCHTISEKARALGGSVLEAILTVYNQLEHHHHHH	not soluble
MKRQKRDRLERAQSQGYKAGLNGRSSEHCPYQSMDARSCWLGGWRDARDDKQSGLFKLEHHHHHH	not soluble
MKRQLILEDGTVLIGTGFGGEIEKSGEVVFTTGMTGYQETLSDPSYCGQIVTFTYPLIGNYGINRDDFESIHPSVNGLIVNEICDHPSNFRNEISLNDYLKERNIPGLAGIDTRKLTRKIRQYGTLRGRLCNMDADVEYIVSQLKATVFTDHVKRVSTKDPYPSPGRGHRVVLVDFGMKHGILRELNKRDCDVIVVPYNTTAEEILRLSPDGIMLSNGPGDPKDVPEAIEMLKDIIGKVPLFGICLGHQLFALASGANTSKLKFGHRGLNHPVKNIATGKVAITSQNHGYAVEEESVENTELEITHVALNDGTVEGLRHKKFPAFTVQYHPEASAGPEDANDLFEDFLTMIENFKKEGEELCQNA	not soluble
MKRVVLYIKDKCPHCKDAQRYLDSKGIKYRLCNAKMERGRKELDALGARSVPVLKIGDRLMIGWNHTNFERIYSSKD	not soluble
MKSHQFSTALCQNTTESNGQPLRFPSPAKLNLFLYINGKFPNGYHELQTLFQFLDFGDWLDISIREQDNQIVLTPEIPNLKTENNLIYRAAKLLQEKANIQLGANIHLDKILPMGGGVGGGSSNAATALVSLNYLWQANLSIDELAKLGLTLGADVPIFVHGHAAFAEGVGEKITYCEPAEKWFVILKPDDSISTAVIFQDPNLPRNTPKKSLAQLLSEPYKNDCEKVVINHYSNVEKALNWLLQYAPARLTGTGACVFAEFDHEAEAQAVFRQKPEAFFGFVAKGLNVSPLHAMLKQLSSTHTHRQSKPEVLLEHHHHHH	soluble
MKSRIVYGPILSRRLGRSLGIDVIKNTGSKKNCNYDCIYCQLGHVELKLGSPEDVKEAVTPKEVSESFEKFYKDVEGLDYITFSGTCEPSLNLSLGEMIQSIREISGVPVCVITNSSLMGREDVRKNLSQADLVVATLVSGIEKTWRKIHRPAPCINFQEIIEGLRELAKAGDGKKLALEVMFLESETGEPLNSTDEEVDCLIKTIRYICPDEIEVLTISRPPAEKWVKPVSEERLREIADRFISEFGAEKVRLVLKGKKKKAKVLHRDLEEEVYALLLRRPCTFEQTWQGLSIDPESLRPVLEKLLAEGKIEEIGSKNSVYYRAK	not soluble
MKSSDRLFTGRSENYSKFRPSYPVGIVKMLTDKYGLKKEMVIADIGCGTGILARMFLENGNKVYCIDPNGEMLKFAKDELSSFGNAIIVRGSAENTGLEDHSVNVISAGQSFHWFDTDKAKVEFRRILTAPYMVVLIWNDRDIDDGFTAEYEKIVSAYGKNYQGTGSTGLPPDTIPQFFNWAYDYYQYQNYQELDLEGLKGRYLSTFYSITQEYPKFQAAMKALETAFNAFSVDGKVRIRYITKVFVGKLNPLEHHHHHH	soluble
MKSSLSLLLLTSALSNFALATEIKSGGETSTTKEGANAFSMPAANLPMAKRLDFSVGNSFFRNPWVPAPASTDARDGLGPLFNTNGCQNCHIKDGRGHPPEPNDTQAVSMLVRLSIPAVTEQQKAIYAVNGVVPEPTYGGQLQDFSLPDQKPEGRIHITYDEVVVTFADGTPVALRKPNLKILDLAYGEMHPDVQMSARVAPPMIGLGLLEAIPDATLLQWADPEDRDGDGISGRVNQVRDVRTGEMAIGRFGWKAGQPNIMQQNAAAFNGDLGLTSHLFPQENCTEKQTLCRDLPNGGSPEVSDNILDFVEFYAQHLAVPVRRNVQDPQVQLGEKLFAQAGCQSCHKTNVLTQELAERPALSKQRIQPYTDLLLHDMGEGLSDGRPEALASAREWRTAPLWGIGYTQEVNGHTYFLHDGRARNVLEAVLWHGGEAQASRDKVLQFDKAQREALVAFLNSL	not soluble
MKSTSMNTNKRFQNVNQWKLHASAAAYLAGWKVVRLLPEPVAYRLFSWAAVIASRRGRGMDQLRRNLTRVVGAESVDRALVKRSMQSYARYWCEAFRLSVIARDPDVIHRVDAHAVGVEQVNPHSPMIIVLPHSGNWDLIGMYFVKKVGTFTTVAERVKPESLFRAFVNYRRSLGFEVLPLTGSETSPYSVLLQRVREGRTVCLLGERDLTSHGVEVEFFGETTRMPAGAVKLALDSGAPLHVAHTWFEGDDWGLSLSEPVEITDVKSGVQAIAQIMEKNIKAHPQDWHLLQPLWINDLDRRRYESGLQPKND	not soluble
MKTADELAKLRRASELITDSMLATIAAARAGSTKLEIIEQLRREETNRGLHFEYCLLTLGASHNRAGSPQAWAEGEILSIDSGGNYHGYIGDLCRMGVLGEPDAELEDLLAEVERIQQAAFAKVRAGVLGSEMIVAAEAELKASPSAAFTDFFCHGMGLITHEAPFLMTNHPVAYEGIDADKPLEAGNVISVETTMLHPKRGFIKLEDTLAITDKGYEMFGDRGRGLEHHHHHH	soluble
MKTAIVYYSQHHGNTKKLLDAIAIVDDVTLIDVTKHTAYDLNEFNLIGFASGIYFQKFSKKVLDFAKNNLPFNKKVFFIYTCGIKFPSYTVAIRAVVKEKNADIVGEYGCPGFDTFGPFKIVGGIRKGRPNENDIAKAVQFFRGILKLEHHHHHH	soluble
MKTEKEEAEEEPFVIRPYLKSELAHKYNPHLPLIYAMQKLRGWIRNNKELYDAMYSGGEGKNDHAYSSRQVRLIVKFLDEP	not soluble
MKTFPLQSLTIIEAQQKQFALVDSICRHFPGSEFLTGGDLGLTPGLNQPRVTQRVEQVLADAFHAQAAALVQGAGTGAIRAGLAALLKPGQRLLVHDAPVYPTTRVIIEQMGLTLITVDFNDLSALKQVVDEQQPDAALVQHTRQQPQDSYVLADVLATLRAAGVPALTDDNYAVMKVARIGCECGANVSTFSCFKLFGPEGVGAVVGDADVINRIRATLYSGGSQIQGAQALEVLRGLVFAPVMHAVQAGVSERLLALLNGGAVPEVKSAVIANAQSKVLIVEFHQPIAARVLEEAQKRGALPYPVGAESKYEIPPLFYRLSGTFRQANPQSEHCAIRINPNRSGEETVLRILRESIASI	soluble
MKTKDQIDNIVKETYRHIDFSGVILVKEKKGIVYEEVFGYANRNECINNTLQTRFGIASGCKIFTAIGICQLVENGVITFQTKLKECLSVNFPNFNEDITIHHLLTHSSGIPDYFDESIMDNFEDLWKQTPMYLLKSLKDFLPLFQNRDMMYAPGSKFHYNNAGFIILGLIIEEQTGLTFTEYIEKNIFNPIGMNHSGYFSLDRLPRQTALGYIKDEISQTWRTNAYSIPIKGGSDGGAFITASDMLKFWEALFNYEIISQEYTKILLTPHIQVNNNQSYGYGIWIETRENKIFKYHVMGYDPGVSFRSAVYPDLGITLVIPSNKGAGAEKLMIEIEGSF	not soluble
